Columns and labels:
IL-1b = IL-1b (Homo sapiens, UniProt P01584); experiment: ESAP assay of IL-1b biological activity; format: cell-based; details: FIG. 14
Excerpt: (§1) The program picked out antisense region LITVLNI (SEQ ID No. 8) in the IL-1R receptor.

IL-1 [1] = biological target: T1, IL-1 (Homo sapiens, UniProt P01584); experiment: Direct binding to IL-1 by biosensing techniques
Excerpt: as §1

IL-1 [2] = biological target: T1, IL-1; experiment: Serum Amyloid IL-1 assay; format: cell-based; details: FIG. 14
Excerpt: as §1

T1 sequence (P01584 117-269): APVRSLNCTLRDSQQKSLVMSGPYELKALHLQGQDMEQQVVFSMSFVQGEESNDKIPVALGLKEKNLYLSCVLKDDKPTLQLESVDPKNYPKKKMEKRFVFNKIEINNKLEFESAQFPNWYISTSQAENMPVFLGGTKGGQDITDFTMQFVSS
Sequence of IL-1b (P01584 117-269): as above

direct binding to IL-1 (IL-1 [1]) | inhibition of IL-1 activity in Serum Amyloid IL-1 assay (IL-1 [2]) | Substance | inhibition of the biological activity of IL-1b in ESAP assay (IL-1b)
– | – | LTILINV (Hypothetical sequence) [scrambled peptide control of LITVLNI, reference compound] | The effect is dependent on the peptide sequence
bind directly to IL-1 | The same effect is also seen | LITVLNI (listed as Homo sapiens) [antisense region in the IL-1R receptor picked out by the ALS program] | inhibit the biological activity of IL-1b

Source: patent publication US6721663B1, “Method for manipulating protein or DNA sequence data in order to generate complementary peptide ligands” (Proteom Limited, priority 1999, dated 2004)
